Legend:
purified protein [1] = substrate: CC(C)=CCNc1ncnc2nc[nH]c12; assay: purified protein; type: biochemical, Linum usitatissimum; settings: 0.5 mM DCPIP as electron acceptor, 1.6 µM LuCKX1.1, McIlvaine buffer pH 7.5, no AvrL567-A
purified protein [2] = substrate: C/C(=C\CNc1ncnc2[nH]cnc12)CO; assay: purified protein; settings: 0.5 mM DCPIP as electron acceptor, 1.6 µM LuCKX1.1, McIlvaine buffer pH 7.5, no AvrL567-A
[3] = molecular target: LuCKX1.1 protein (residues 44-534), purified (flax (Linum usitatissimum))

B1: LuCKX1.1 (Linum usitatissimum) (protein)
chain: LQGSIDYSTLAADFTGKDFGGVYSSNPLALIRPSGADDVARVLKSACRSSNLTVAARGNGHSINGQAMADGGIVLDMRSTEGNHFKILRINGGDHTAYADVSGGALWEDILMRCVSEYGLAPRSWTDYLRLTVGGTLSNAGVSGQAFRYGPQSSNVTELDVVTGKGDFLTCSPTHNSDLFFGALGGLGQFGVITRARIPLEPAPDMVRWIRMVYAEFEDFSRDAEWLVTQPEKESFDYVEGFAFVNSDSPADGWPSVPLYPNHMMEPTTPIHSGHQLLYCLELALHFNHSNSSSTVDSVVKRLIGGLRYMKGFKYEVDLSYVEFVMRVKRVEEDARAHGMWDAPHPWLNLFVSKADIAEFDRLIFKGLLHDGVGGPMLVYPLLRSKWDSRSSVVLPEGEDEIFYIVALLRSNPPYPKGPSVDKLVSQNDKIIQSCIQHGLGFKLYLPHYQSQHDWRRHFGDQWSKFVQLKLAFDPMAVLAPGQKIFTRTTK
notes: crystal model residues 44-532, two molecules per asymmetric unit; FAD covalently linked to His104
- Km (purified protein [1]): 44 µM
- kcat (purified protein [1]): 5.4 s⁻¹
- Km (purified protein [2]): 64 µM
- kcat (purified protein [2]): 0.69 s⁻¹

B2: AvrL567-A protein (residues 24-150), purified (natural protein)
chain: MEHVPAELTRVSEGYTRFYRSPTASVILSGLVKVKWDNEQMTMPLFKWIGGEQAEELHFCVHIAHSSGPKLNRARSLGTVNSNMDQHWAQAQRNSGATRRTIEGFHLFENDIPNFPDYIKIKLVPKT
- turnover rate (Kcat) of LuCKX1.1 towards 2iP in the DCPIP kinetic assay, with 1.6 uM AvrL567-A against without it [3]: 50%
- turnover rate (Kcat) of LuCKX1.1 towards tZ in the DCPIP kinetic assay, with 1.6 uM AvrL567-A against without it [3]: 130%
